Source: patent US20180207259A1
pKd: −log10 of the molar value.

Molecular target: 92UG037.8-gp140-Fd (HIV-1 primary isolate 92UG037.8 (clade A))
Test: surface plasmon resonance

monoclonal antibody (mAb) 2G12
pKd: 7.75
